Data reported in patent publication US5677146, “Human amyloid protein precursor homolog and kunitz-type inhibitor” (Zymogenetics, Inc., dated 1997).

How the values were obtained:
[1] = molecular target: bovine trypsin (bovine, UniProt P00760); test: affinity chromatography of yeast supernatant on bovine trypsin coupled to CNBr-activated Sepharose
[2] = molecular target: human Factor Xa (3 nM) (human, UniProt P00742); test: cell-based or functional assay
[3] = molecular target: recombinant human activated protein C (5 nM), Novo Nordisk A/S (human, UniProt P04070); test: cell-based or functional assay
[4] = molecular target: human Factor XIa (1 nM) (human, UniProt P03951); test: cell-based or functional assay
[5] = molecular target: recombinant human Factor VIIa (300 nM), Novo Nordisk A/S (human, UniProt P08709); test: cell-based or functional assay
[6] = molecular target: T1, human Factor XIIa (30 nM) (human, UniProt P00748); test: cell-based or functional assay
T1 sequence 1: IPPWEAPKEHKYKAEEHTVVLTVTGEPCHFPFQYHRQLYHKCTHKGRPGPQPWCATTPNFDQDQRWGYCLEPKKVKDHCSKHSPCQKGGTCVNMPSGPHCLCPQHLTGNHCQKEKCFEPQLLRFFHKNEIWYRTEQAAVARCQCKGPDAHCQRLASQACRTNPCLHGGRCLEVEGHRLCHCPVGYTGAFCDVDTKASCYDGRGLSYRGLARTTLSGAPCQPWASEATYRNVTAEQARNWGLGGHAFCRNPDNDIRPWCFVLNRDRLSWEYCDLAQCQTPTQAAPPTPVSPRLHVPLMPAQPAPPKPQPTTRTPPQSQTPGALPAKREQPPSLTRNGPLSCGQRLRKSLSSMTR
T1 sequence 2: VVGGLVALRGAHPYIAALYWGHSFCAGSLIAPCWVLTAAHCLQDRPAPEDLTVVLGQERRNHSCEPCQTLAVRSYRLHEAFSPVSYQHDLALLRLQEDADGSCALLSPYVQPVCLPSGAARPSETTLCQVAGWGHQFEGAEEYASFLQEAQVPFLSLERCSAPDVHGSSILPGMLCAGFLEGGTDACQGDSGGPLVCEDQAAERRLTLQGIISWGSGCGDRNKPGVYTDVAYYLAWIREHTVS

B1: Kunitz-type inhibitor domain of the amyloid protein precursor (other)
chain: EVCSEQAETGPCRAMISRWYFDVTEGKCAPFFYGGCGGNRNNFDTEEYCMAVCGSA
binding result [1]: binds | % Inhibition [2]: 29% | % Inhibition [3]: 1% | % Inhibition [4]: 100% | % Inhibition [5]: 7% | % Inhibition [6]: 8%
